Patent publication US20060252116A1, “Icam-4 binding sites” (priority 2002, published 2006)

Assays:
α4β1 integrin (VLA-4) [1] = target: α4β1 integrin (VLA-4) (UniProt P13612); assay: HEL cell adhesion to coated human ICAM-4Fc (2.5 ug/ml); value is for the MIXTURE of SEQ ID NO: 9, 10 and 11, each peptide 750 uM
α4β1 integrin (VLA-4) [2] = target: α4β1 integrin (VLA-4) (UniProt P13612); assay: HEL cell adhesion to coated human ICAM-4Fc (2.5 ug/ml); value is for the MIXTURE of SEQ ID NO: 10 and 11, each peptide 750 uM
α4β1 integrin (VLA-4) [3] = target: α4β1 integrin (VLA-4) (UniProt P13612); assay: HEL cell adhesion to coated human ICAM-4Fc (2.5 ug/ml); value is for the MIXTURE with control peptide SEQ ID NO: 13, each peptide 750 uM
α4β1 integrin (VLA-4) [4] = target: α4β1 integrin (VLA-4) (UniProt P13612); assay: HEL cell adhesion to coated human ICAM-4Fc (2.5 ug/ml); value is for the MIXTURE of SEQ ID NO: 9, 11 and control peptide 13, each peptide 750 uM
α4β1 integrin (VLA-4) [5] = target: α4β1 integrin (VLA-4) (UniProt P13612); assay: HEL cell adhesion to coated human ICAM-4Fc (2.5 ug/ml); value is for the MIXTURE of SEQ ID NO: 10, 11 and control peptide 13, each peptide 750 uM
α4β1 integrin (VLA-4) [6] = target: α4β1 integrin (VLA-4) (UniProt P13612); assay: HEL cell adhesion to coated human ICAM-4Fc (2.5 ug/ml); value is for the MIXTURE of SEQ ID NO: 9 and 11, each peptide 750 uM
α4β1 integrin (VLA-4) [7] = target: α4β1 integrin (VLA-4) (UniProt P13612); assay: HEL cell adhesion to coated human ICAM-4Fc (2.5 ug/ml), peptide 750 uM; competitor human ICAM-4Fc
α4β1 integrin (VLA-4) [8] = target: α4β1 integrin (VLA-4) (UniProt P13612); assay: HEL cell adhesion to coated human NCAMFc (control), no peptide
α4β1 integrin (VLA-4) [9] = target: α4β1 integrin (VLA-4) (UniProt P13612); assay: HEL cell adhesion to coated human ICAM-4Fc (5 ug/ml); value is for the MIXTURE with control peptide SEQ ID NO: 13, each peptide 500 uM
α4β1 integrin (VLA-4) [10] = target: α4β1 integrin (VLA-4) (UniProt P13612); assay: HEL cell adhesion to coated human ICAM-4Fc (5 ug/ml); value is for the MIXTURE of SEQ ID NO: 9 and 10, each peptide 500 uM
α4β1 integrin (VLA-4) [11] = target: α4β1 integrin (VLA-4) (UniProt P13612); assay: HEL cell adhesion to coated murine ICAM-4Fc (5 ug/ml); value is for the MIXTURE of SEQ ID NO: 9 and 10, each peptide 500 uM
α4β1 integrin (VLA-4) [12] = target: α4β1 integrin (VLA-4) (UniProt P13612); assay: HEL cell adhesion to coated murine ICAM-4Fc (5 ug/ml), peptide 500 uM; competitor murine ICAM-4Fc
α4β1 integrin (VLA-4) [13] = target: α4β1 integrin (VLA-4) (UniProt P13612); assay: HEL cell adhesion to coated murine ICAM-4Fc (5 ug/ml); value is for the MIXTURE with control peptide SEQ ID NO: 13, each peptide 500 uM
α4β1 integrin (VLA-4) [14] = target: α4β1 integrin (VLA-4) (UniProt P13612); assay: HEL cell adhesion to coated human ICAM-4Fc (2.5 ug/ml); value is for the MIXTURE of SEQ ID NO: 9, 10 and control peptide 13, each peptide 750 uM
α4β1 integrin (VLA-4) [15] = target: α4β1 integrin (VLA-4) (UniProt P13612); assay: HEL cell adhesion to coated human ICAM-4Fc (5 ug/ml), peptide 500 uM; competitor human ICAM-4Fc
α4β1 integrin (VLA-4) [16] = target: α4β1 integrin (VLA-4) (UniProt P13612); assay: HEL cell adhesion to coated human ICAM-4Fc (2.5 ug/ml); value is for the MIXTURE of SEQ ID NO: 9 and 10, each peptide 750 uM

α4β1 integrin (VLA-4), sequence (P13612 34-1032, chain 1 of 2): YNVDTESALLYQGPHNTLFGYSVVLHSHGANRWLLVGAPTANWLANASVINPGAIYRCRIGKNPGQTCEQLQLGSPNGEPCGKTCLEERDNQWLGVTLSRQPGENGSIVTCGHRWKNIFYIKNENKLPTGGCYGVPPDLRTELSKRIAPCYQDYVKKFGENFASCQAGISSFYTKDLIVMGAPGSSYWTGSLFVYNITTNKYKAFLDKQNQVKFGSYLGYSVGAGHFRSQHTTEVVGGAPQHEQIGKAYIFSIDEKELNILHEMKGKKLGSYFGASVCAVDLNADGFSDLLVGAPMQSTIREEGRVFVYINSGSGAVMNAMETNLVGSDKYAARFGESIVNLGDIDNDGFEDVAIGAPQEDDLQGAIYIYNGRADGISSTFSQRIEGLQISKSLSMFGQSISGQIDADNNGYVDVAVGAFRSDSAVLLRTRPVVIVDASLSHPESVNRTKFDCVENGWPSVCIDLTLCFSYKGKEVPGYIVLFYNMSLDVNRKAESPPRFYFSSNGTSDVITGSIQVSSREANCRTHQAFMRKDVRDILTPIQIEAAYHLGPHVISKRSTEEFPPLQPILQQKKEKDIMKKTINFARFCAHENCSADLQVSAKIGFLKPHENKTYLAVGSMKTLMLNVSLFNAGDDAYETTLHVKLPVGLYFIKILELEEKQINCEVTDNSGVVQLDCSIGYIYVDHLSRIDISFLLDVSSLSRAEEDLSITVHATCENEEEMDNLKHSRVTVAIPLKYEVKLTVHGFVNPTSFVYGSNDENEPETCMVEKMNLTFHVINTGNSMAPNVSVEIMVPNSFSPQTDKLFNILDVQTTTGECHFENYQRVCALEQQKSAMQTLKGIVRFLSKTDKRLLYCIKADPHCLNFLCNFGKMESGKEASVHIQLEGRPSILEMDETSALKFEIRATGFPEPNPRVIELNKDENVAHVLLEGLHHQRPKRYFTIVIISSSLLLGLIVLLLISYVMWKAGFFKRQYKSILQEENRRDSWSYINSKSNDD
α4β1 integrin (VLA-4), sequence (P05556 21-798, chain 2 of 2, further chain): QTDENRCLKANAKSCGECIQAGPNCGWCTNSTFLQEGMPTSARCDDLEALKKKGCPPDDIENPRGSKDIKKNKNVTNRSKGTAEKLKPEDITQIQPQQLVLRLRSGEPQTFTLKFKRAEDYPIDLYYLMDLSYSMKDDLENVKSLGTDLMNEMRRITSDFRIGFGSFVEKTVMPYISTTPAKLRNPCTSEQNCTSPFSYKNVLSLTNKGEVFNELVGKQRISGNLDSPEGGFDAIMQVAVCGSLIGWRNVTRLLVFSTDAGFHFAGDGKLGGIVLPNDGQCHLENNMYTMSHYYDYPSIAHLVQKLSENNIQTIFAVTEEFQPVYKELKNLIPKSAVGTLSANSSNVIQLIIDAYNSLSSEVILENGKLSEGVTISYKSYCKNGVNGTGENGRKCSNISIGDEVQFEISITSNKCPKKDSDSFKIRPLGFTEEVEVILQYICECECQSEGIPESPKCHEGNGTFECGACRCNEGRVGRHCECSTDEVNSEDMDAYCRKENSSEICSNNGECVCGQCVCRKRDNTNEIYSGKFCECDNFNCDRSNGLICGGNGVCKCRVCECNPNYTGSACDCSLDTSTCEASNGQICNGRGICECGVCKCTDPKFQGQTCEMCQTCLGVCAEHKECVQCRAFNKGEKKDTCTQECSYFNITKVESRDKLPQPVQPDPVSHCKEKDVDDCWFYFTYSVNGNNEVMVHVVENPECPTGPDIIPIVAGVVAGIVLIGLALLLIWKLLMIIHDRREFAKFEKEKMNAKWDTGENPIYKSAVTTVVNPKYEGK

input cells bound as % of binding to ICAM-4Fc in the absence of peptides (α4β1 integrin (VLA-4) [1])	input cells bound as % of binding to ICAM-4Fc in the absence of peptides (α4β1 integrin (VLA-4) [2])	input cells bound as % of binding to ICAM-4Fc in the absence of peptides (α4β1 integrin (VLA-4) [3])	input cells bound as % of binding to ICAM-4Fc in the absence of peptides (α4β1 integrin (VLA-4) [4])	input cells bound as % of binding to ICAM-4Fc in the absence of peptides (α4β1 integrin (VLA-4) [5])	input cells bound as % of binding to ICAM-4Fc in the absence of peptides (α4β1 integrin (VLA-4) [6])	input cells bound as % of binding to ICAM-4Fc in the absence of peptides (α4β1 integrin (VLA-4) [7])	input cells bound as % of binding to ICAM-4Fc in the absence of peptides (α4β1 integrin (VLA-4) [8])	input cells bound as % of binding to murine ICAM-4Fc in the absence of peptides (α4β1 integrin (VLA-4) [8])	input cells bound as % of binding to ICAM-4Fc in the absence of peptides (α4β1 integrin (VLA-4) [9])	input cells bound as % of binding to ICAM-4Fc in the absence of peptides (α4β1 integrin (VLA-4) [10])	input cells bound as % of binding to murine ICAM-4Fc in the absence of peptides (α4β1 integrin (VLA-4) [11])	input cells bound as % of binding to murine ICAM-4Fc in the absence of peptides (α4β1 integrin (VLA-4) [12])	input cells bound as % of binding to murine ICAM-4Fc in the absence of peptides (α4β1 integrin (VLA-4) [13])	input cells bound as % of binding to ICAM-4Fc in the absence of peptides (α4β1 integrin (VLA-4) [14])	input cells bound as % of binding to ICAM-4Fc in the absence of peptides (α4β1 integrin (VLA-4) [15])	input cells bound as % of binding to ICAM-4Fc in the absence of peptides (α4β1 integrin (VLA-4) [16])	Substance
42%	41%	46%	42%	40%	43%	50%	–	–	–	–	–	–	–	–	–	–	aWssLahcl peptide (SEQ ID NO: 11)
–	–	–	–	–	–	–	3%	19%	–	–	–	–	–	–	–	–	human NCAMFc (from UniProt P13591 20-718) (Fc fusion)
42%	–	59%	42%	–	43%	64%	–	–	60%	35%	47%	67%	70%	49%	61%	52%	svpFWVrms peptide (SEQ ID NO: 9)
42%	41%	55%	–	40%	–	58%	–	–	56%	35%	47%	58%	55%	49%	58%	52%	tRwATSRit peptide (SEQ ID NO: 10)
